The target of series [1] is T1, PKR dsRBD (p20) (UniProt P19525 1-184). Put plainly: EMSA.
Series [2] deals with T1, PKR dsRBD (p20). Put plainly: nuclease footprinting.

T1 sequence (P19525 1-184): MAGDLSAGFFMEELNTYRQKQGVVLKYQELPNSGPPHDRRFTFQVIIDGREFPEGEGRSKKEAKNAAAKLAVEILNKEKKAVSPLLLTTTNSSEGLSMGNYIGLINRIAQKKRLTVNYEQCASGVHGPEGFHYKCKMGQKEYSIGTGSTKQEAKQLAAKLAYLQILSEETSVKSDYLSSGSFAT

B1: HCV IRES domains III-IV (131-388) (structured_RNA)
RNA: GGGAGAGCCAUAGUGGUCUGCGGAACCGGUGAGUACACCGGAAUUGCCAGGACGACCGGGUCCUUUCUUGGAUCAACCCGCUCAAUGCCUGGAGAUUUGGGCGUGCCCCCGCGAGACUGCUAGCCGAGUAGUGUUGGGUCGCGAAAGGCCUUGUGGUACUGCCUGAUAGGGUGCUUGCGAGUGCCCCGGGAGGUCUCGUAGACCGUGCACCAUGAGCACGAAUCCUAAACCUCAAAGAAAAACCAAAGGGCGCGCCGC
B1: in series [1], the binding result is listed as “binds”.

B2: HCV IRES domain II (39-119) (structured_RNA)
RNA: GGACUCCCCUGUGAGGAACUACUGUCUUCACGCAGAAAGCGUCUAGCCAUGGCGUUAGUAUGAGUGUCGUGCAGCCUCCAGGA
For B2, in series [2], the binding result is “binds”.

The record behind these values is publication PMC2902579.
